Concentration and stoichiometry N data for one substance are collected here from PMC7244311.

For the assay, the target named is talin R3 IVVI domain in the (R3)-(I91)8 construct (mouse). Description: magnetic tweezers force spectroscopy.

As a reminder, the stoichiometry N is a count of units in the complex or per binding partner. vinculin head (domain or fragment): the concentration at half the maximum binding velocity, 9 pN was determined as 90 nM and the stoichiometry N was found to be 2.
